Measurements taken from the DeepSol protein solubility set.

assay: soluble on expression in E. coli; label from the status in PepcDB or PDB records

Sequence | soluble on expression in E. coli
MSINTANTPDGLGVLLYNGETIVIFAQGVVMTLGTSENENLEGRRTGTIYLTSHRIIFMPDPGDWLKSFEIPFNSMQDVNLNQPIFGANYLCGIASAVQGGQMRGEVKWRMTFNRGGCIEFGQSLLQAVERAVRMRPENAPPAYSPPIGDFYSAPPAYYQPSPDQGPNGFNPTTDSFPDQPNPSRVFMSSAPPPYPGIGPERGPHPTEELHVAGQFEAPPAYGSGETADGLRRRN | not soluble
MEKYEEVLVSIRQIIRAIDLHSKKLSKESGLTAPQLILMRAINELDNVTIKQLSNHTNMSQATATTILDRLERNQLVERRRSVEDKRKVHAVLTEKGEEALRQAPTPLQEHFINRFQKLEEWEQTLLLSSVQRISTMMNAEDIDVAPLLEIGSITKPE | not soluble
MAKKDEHLRKPEWLKIKLNTNENYTGLKKLMRENNLHTVCEEAKCPNIHECWAVRRTATFMILGSVCTRACRFCAVKTGLPTELDLQEPERVADSVALMNLKHAVITAVARDDQKDGGAGIFAETVRAIRRKSPFTTIEVLPSDMGGNYDNLKTLMDTRPDILNHNIETVRRLTPRVRARATYDRSLEFLRRAKEMQPDIPTKSSIMIGLGETKEEIIEVMDDLLANNVDIMAIGQYLQPTKKHLKVQKYYHPDEFAELKEIAMQKGFSHCEAGPLVRSSYHADEQVNEASKKR | not soluble
LAIAAIRNLLIKNDIEILAELTEGGSAVQRVETLKPDIVIIDVDIPGVNGIQVLETLRKRQYSGIIIIVSAKNDHFYGKHCADAGANGFVSKKEGMNNIIAAIEAAKNGYCYFPFSLNRFVGSLTSDQQKLDSLSKQEISVMRYILDGKDNNDIAEKMFISNKTVSTYKSRLMEKLECKSLMDLYTFAQ | not soluble
MKDELIKKLSRPEWDFQYDSEKEVLRIEQKDSKKGINVSLPGVVAKWEVNKEKAIEEVAYYVQEALIAMHKEENSGAKILPVIRSTSFPKQAEEGNPFIMTDHTAETRIYYALDSNKTYRLIDERLLQKLELTEQQVREMALFNARSLGYEFKQDTVAGNTFYFLNTNDGYDATRILNESLLQSMREKISGDMVVAVPHQDVLIIADIVNEIGYDIIAQMTMKFFAEGHVPITSLSFVYEDGEFEPIFILAKNRKKTDGKEKG | not soluble
MAVCGLGSRLGLGSRLGLRGCFGAARLLYPRFQSRGPQGVEDGDRPQPSSKTPRIPKIYTKTGDKGFSSTFTGERRPKDDQVFEAVGTTDELSSAIGFALELVTEKGHTFAEELQKIQCTLQDVGSALATPCSSAREAHLKYTTFKAGPILELEQWIDKYTSQLPPLTAFILPSGGKISSALHFCRAVCRRAERRVVPLVQMGETDANVAKFLNRLSDYLFTLARYAAMKEGNQEKIYMKNDPSAESEGL | not soluble
MSLPCNKHPFYQQLEQQLDTTRTEGLYKNERVITSAQQANIAVADGSRVINFCANNYLGLANHPKLIAAAKAGMDSHGFGMASVRFICGTQDIHKELEHKLASFLGMEDAILYSSCFDANGGLFETLLGPEDAIISDALNHASIIDGVRLCKAKRYRYANNDMTELEAQLKQAKAEGARHIMIATDGVFSMDGVIANLKRVCDLADEYQALVMVDDSHAVGVIGANGRGTHEYCEVMDRVDIITGTLGKALGGASGGYTAGRKELVEWLRQRSRPYLFSNSLAPAIVAASIEVLSLLEEGGALRDRLWANARLFREKMSAAGFTLAGADHAIIPVMLGEAKLAQDFANALLKEGIYVTGFFFPVVPKGQARIRTQMSAGHTTEQVERAIEAFVRIGKQLNVIA | not soluble
MNIYTDKKVVAVGGGHGLGRMLAALKDFGSNATGIVATTDNGGSTGRIRHCQGGIAWGDTRNCINQLITEPSISSMMFEYRFKGTGELDGHNLGNLMLTALDNLSVRPLDAINLIRNMLKVDVNILPMSEHPSDLSALSVNGQWVTGETNVDEMETDLRRLDLSPEVPATKEAVTALAEADAIILGPGSFLTSIMPPLLLPELGKAIAANRKAKVIFVANLSPEYGPAGRMSMAQKLEWCERACQGRRIDVVLAEETDQKVLEQWNVVTEPLASTNRDWRHDRDKLKAAIENQLLTKLEHHHHHH | soluble
MQNVLIVGVGFMGGSFAKSLRRSGFKGKIYGYDINPESISKAVDLGIIDEGTTSIAKVEDFSPDFVMLSSPVRTFREIAKKLSYILSEDATVTDQGSVKGKLVYDLENILGKRFVGGHPIAGTEKSGVEYSLDNLYEGKKVILTPTKKTDKKRLKLVKRVWEDVGGVVEYMSPELHDYVFGVVSHLPHAVAFALVDTLIHMSTPEVDLFKYPGGGFKDFTRIAKSDPIMWRDIFLENKENVMKAIEGFEKSLNHLKELIVREAEEELVEYLKEVKIKRMEI | soluble
MPLPMNSGEKVKAVGRSYNPGRPLCLEDRKKIVRLYEEGCRVSHIARLIGVTHSCVSKIMSRYRRTGSVQPRSFRATENQENDNATWQQQQLKQQQKKEKPLPFSIERF | soluble
MAHHHHHHMSVPKAALMQIFDLYDTDRAGWIPTKRIPYVLRTCGMISTQTEMETLLHDHFASRDTVTRSGFQKFLEQKDILKAEDFSSEKELATAFQVFDSRESGALTSDEVLTILTRMNEKIDVDAYHRVMDGLELNEQGMVEFAKLAAHMLRSANEYKLTVRQVLEELAE | soluble
MTNWKPLVSVITPSYNARDYIEDTVHSVLDQSHPHWEMIIVDDCSTDGTRDILQQYEKIDERIHVVYLEENSGAAVARNKALERAQGRYVAFLDSDDKWKKDKLEKQLEFMMERSCAFSFTGYSLMAQDGTPLDKFIHAPESLTYDDALKNTIIGCLTVMIDREQTGQIQMPNIRTRQDLATWLSLLKKGFTAYGMNECLAEYRLVNNSISSNKWKAAKKTWFVYREIERLHFMKATWCFVQYAKNAVKKRL | soluble
MAHHHHHHMAKAIGDGDTGDAWWANPEHLAAIDATAAAEAVVSVPHQPEKNTGTGCSSRITAMRYYMKPDTWTQTLLSDEGETARENRTDGEVPHSGSASTGAVTSSDPRGCNSDAHVHHQATSSLLSTASSVVTTTATEEASSLPAASSPLHGLPLHQLIEQHAALVRRLVQVLAPQRQTIPHVIRELCTTRVTSPSSAVASRVCVLPSMDASNAEPMQYTERDVAAAVEQLTSSHPRQPRLRELKSDGYLLMNLEGFADGKTRHKAVNRAYPALALHWPASVQQMDAMERYVDRDVVLDTRKRHPELSGEGSDKKQGQKRDRSRSSTSSNASGADEDGAHKARAPGYTSSPPSPPLGMAASPKRTAPTTSSRRFFQSLREYPRSLEHGDLHAWARGTAAQQARDCLQAATTLTQSSTSTVDGSSDAATLGPLPITNEEDVAVLRCQYDALAAAESVVEKQLRAYSDTVQELRGWYRGELCTQQFRYELEAWLRTQEESRAVLTDLYAQMHAMRYSLQRDLSNYLHLHALGVL | soluble
MGSDKIHHHHHHMNEQIIEDLSSPWSGNTVHLVTVDGSQLIKKQYRKKEGYLREVHALRTVPQAICPSLVDAYEQLTYEPLQKNIQAADLDEIIGSLLRELHQHTVQKPSVFDPGNGVTKETWLDYLESFAPNWLQTIGTEKYESMYWSAINSVRAAYDRNQRALCLIHRDARLANVGEGSDGRFLFLDFELAIIGDPLWDVARYLIQSVHSETTFLKAYEFDHTEIEVLQAYKKLYAMSFMNYLIKNKQADTLDFKKCVNVLTN | not soluble
MNNKLKTQAVEQLFQAILSLKDLDEAYDFFEDVCTINEILSLSQRFEVAKMLREHRTYLDIAEKTGASTATISRVNRSLNYGNDGYDRVFERLGMLEKESEDNK | soluble
MGSDKIHHHHHHMERNTRVVKVANLKIGGNNPIIIQSMTNTNSADVEATVKQINNLEKVGCQLVRMTINNIKAAEAIKEIKKKVSLPLVADIHFDYRLALLAIKNGIDKLRINPGNIGSDENVKKVVEAAKEKNIPIRIGVNSGSIEKEILEKYGKPCVDALVESAMYHIRLLEKFDFFDIIVSLKSSNVKMMVEAYRKISSLVDYPLHLGVTEAGTKFQGTVKSAIGIGALLVDGIGDTLRVSLTENPVEEIKVAKEILKVLDLSDEGVEIISCPTCGRTEIDLIGLAKQVEEEFRTKKNKFKIAVMGCVVNGPGEAREADYGIAAGRGIGILFKKGEIIKKVSESNLLEELKKMISEDLENKKD | not soluble
SNAMAKNKLLRMDNVSIVVESLDNAISFFEEIGLNLEGRANVEGEWAGRVTGLGSQCVEIAMMVTPDGHSRIELSRFLTPPTIADHRTAPVNALGYLRVMFTVEDIDEMVSRLTKHGAELVGEVVQYENSYRLCYIRGVEGILIGLAEELGNK | soluble
MKNVGDVGDLCTGCGTCAAMCPLESVVMRIDHDRGVYEPLVDGECDGCGVCLRVCPGVGVDFTDLNMRVFGREPDDMLMGNYEECYIAHSRDDELRYGASSGGMISQILIYLLEEGLIDGALVTRMNPERPLEPEPFIARTPSEIIESRGSKYCPVPANVALKEILEVPGRYAVVGLPCHIHGVRKAEVISRKLRERIVYHLGIVCNHAPSFRATEFLLERLGVDPGDVKSIRYRGEGWPGSLRVETESGDLLLLPEYWGSGFGQLFMPERCRLCADHMAELSDISFADPWLKELKDEKKGRTLVIIRKWPEKFAGILKGGICEMDKIKPEKALLSQIYNIYMKKKLCRRSMYNGSFPEIDFIDRIILSFEPSRLKIPWTIKRRYIFFYSMIVALKARMDFLGDSKLEHHHHHH | soluble
MTDSTIRIAIVGAGGRMGRQLIQAVTQMEGVVLGAAIERKGSTLVGSDAGELAGVGLLNVIVGDDLSQLTDNFDVLIDFTRPEGTLEHLAICRQHRKAMVIGTTGFDEAGKAAISEAAADIGIVFAANFSVGVNVVLKLLEKAAKVMGDYTDIEIIEAHHRHKVDAPSGTALAMGEAIADAMGRSLKDCAVYSREGYTGERKPGTIGFATVRAGDIVGEHTAMFADIGERVEITHKATSRMTFAHGAVKSAIWLGKHDNGLFDMRDVLNLNEL | soluble
GSMIDKSAFVHPTAIVEEGASIGANAHIGPFCIVGPHVEIGEGTVLKSHVVVNGHTKIGRDNEIYQFASIGEVNQDLKYAGEPTRVEIGDRNRIRESVTIHRGTVQGGGLTKVGSDNLLMINAHIAHDCTVGNRCILANNATLAGHVSVDDFAIIGGMTAVHQFCIIGAHVMVGGCSGVAQDVPPYVIAQGNHATPFGVNIEGLKRRGFSREAITAIRNAYKLIYRSGKTLDEVKPEIAELAETYPEVKAFTDFFARSTRGLIR | soluble
MGSDKIHHHHHHMDTLQKTIHNSEYPVVCRSCEARHGGLCSTLTPQQLCDLNRHSSRKKLEAGNELLGQGELVTSYGNILNGVVKLSKMMSDGRQQIVGLQFAPDFLGRPFMAESKMTAEAATDVEICLFPRRIVDRMVTEVPDMERKLHSQSLKELDEARDWMLTLGRKSAQEKVASFLYMIATHIDPENDDKSCFDLPLSRADIADFLGLTIETVSRQMTKLRKEGTIRIENNRHITVPDLDVLSEAAGND | not soluble
MVPLESSTLFGVYGGFTDSMMMRETTTNNQDPSGDTCSVSDPAPGSTDYYNISSSPVKDDGTAPKNDVVCSINVDDNKDKSWLRLGIGPEENTDGSYKLQRCCSKNGSGRENSLELSLFSSSSTAVSSSIDHLPTQPLQLPYHHDQLLTMRGPSLVYNHQLMKPQTLLNRGFSFPSSKPWIPQYMAPFRPSSLSDRDVTNNNSLSRSCCVDEGGAGPSSEFRVLDPPRRPHSGLWFLLQASQFQ | soluble
MAHHHHHHMSGPPKQCYYELLQVDRKASSEEIRQAYKKQALIHHPDKNYSNEQSTIEKFKDIQNAYAVLSDPDERAWYDAHRESILNGEDADSSQHEVNLYCYFTSRCFDGFDDNEGGFYSVYRKVFDQLIEDESEYSSNAKTWPRFGDSATSWSSVSKFYSHWRNFSSCKTFAWKDEYKVNEIPDRASRRMAERINQKLRTSAKKEYVQIVQGLTRFVHRRDPRVAAELTRQEEERRLKEEEREKRELEWAKNRREANEKLWAEAAEKEAEEERARIERGEAPDSCTLDLLYEKQRQCEEARKVKGGTNCGFAMLEDEHEDNLPEKKRSCPACKKQFKTDAQYKEHVNSSKHKAKLRQLSAKGVDIETLMNEEKDISTCV | soluble
